{"source": "paper PMC11237755", "conditions_in_all_cases": "LightShift Chemiluminescent EMSA kit (binding buffer, salt and pH not given), 20 min room temperature; 20 fmol probe, 6% 0.5x TBE gel (TtdV/TtdW); 50 fmol …", "key": {"[1]": {"target": "T1, TtdV-His6 (Salmonella enterica serovar Typhimurium IR715 (ATCC14028 NalR)) (UniProt Q8ZLP8)", "T1 sequence": "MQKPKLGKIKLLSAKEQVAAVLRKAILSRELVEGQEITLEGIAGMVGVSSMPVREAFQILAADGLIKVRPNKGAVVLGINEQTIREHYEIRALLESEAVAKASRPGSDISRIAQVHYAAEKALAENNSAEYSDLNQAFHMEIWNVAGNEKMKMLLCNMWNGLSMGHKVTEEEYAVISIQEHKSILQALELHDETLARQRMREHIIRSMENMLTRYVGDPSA", "assay": "EMSA"}, "[2]": {"system": "T2, His6-ArcA (unphosphorylated) (Salmonella enterica serovar Typhimurium IR715 (ATCC14028 NalR)), ORF:c309dbee", "T2 sequence": "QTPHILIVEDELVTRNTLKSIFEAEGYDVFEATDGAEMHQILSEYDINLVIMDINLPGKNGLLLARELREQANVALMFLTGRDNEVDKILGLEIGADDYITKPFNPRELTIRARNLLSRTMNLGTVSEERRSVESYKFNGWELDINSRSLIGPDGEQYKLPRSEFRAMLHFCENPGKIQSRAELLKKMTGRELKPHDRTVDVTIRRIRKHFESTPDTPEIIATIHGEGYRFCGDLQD", "assay": "EMSA"}, "[3]": {"system": "T3, His6-ArcA~P (Salmonella enterica serovar Typhimurium IR715 (ATCC14028 NalR)), ORF:c309dbee", "T3 sequence": "T2 sequence", "assay": "EMSA"}, "[4]": {"target": "T4, TtdW-His6 (Salmonella enterica serovar Typhimurium IR715 (ATCC14028 NalR)) (UniProt Q8ZLP7)", "T4 sequence": "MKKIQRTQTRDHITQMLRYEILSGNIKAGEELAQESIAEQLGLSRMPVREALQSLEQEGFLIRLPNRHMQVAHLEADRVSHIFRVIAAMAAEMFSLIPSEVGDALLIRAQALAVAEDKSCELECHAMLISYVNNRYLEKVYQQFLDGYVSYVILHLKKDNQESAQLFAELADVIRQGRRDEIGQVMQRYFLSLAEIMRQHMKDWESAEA", "assay": "competition"}, "[5]": {"system": "T3, His6-ArcA~P (Salmonella enterica serovar Typhimurium IR715 (ATCC14028 NalR)), ORF:c309dbee", "assay": "competition"}, "[6]": {"target": "T4, TtdW-His6 (Salmonella enterica serovar Typhimurium IR715 (ATCC14028 NalR))", "assay": "EMSA"}}}
{"sequence": "ACCGAAGAAGAGTATGCCGTGATTTCCATTCAGGAACATAAAAGTATTCTGCAAGCTCTTGAACTTCATGATGAAACATTGGCACGCCAGCGCATGCGCGAACACATTATTCGCTCAATGGAGAATATGCTGACCCGCTATGTTGGTGACCCTTCTGCCTGATCTTTTCGCCTGCGTGAGCATCGCAGGCGCTTCAACCAATTCTTCAATTCTATTAATCACGTCCAGTAACGATCTAACCACGATCTTGATGTAGC (double strand) [Probe 3]", "values": [{"measurement": "binding", "setting": "[1]", "result": "no binding"}, {"measurement": "binding", "setting": "[2]", "result": "binds"}, {"measurement": "binding", "setting": "[3]", "result": "binds"}]}
{"sequence": "CCTAACTCGGCGGAATACTCCGACCTGAATCAGGCATTTCATATGGAAATATGGAATGTTGCTGGCAACGAAAAAATGAAAATGTTGCTCTGTAATATGTGGAACGGCCTGTCGATGGGCCATAAGGTCACCGAAGAAGAGTATGCCGTGATTTCCATTCAGGAACATAAAAGTATTCTGCAAGCTCTTGAACTTCATGATGAAACATTGGCACGCCAGCGCATGCGCGAACACATTATTCGCTCAATGGAGAATATGCTGACCCGCTATGTTG (double strand) [Probe 2]", "values": [{"measurement": "binding", "setting": "[1]", "result": "no binding"}, {"measurement": "binding", "setting": "[2]", "result": "binds"}, {"measurement": "binding", "setting": "[3]", "result": "binds"}]}
{"sequence": "CGTATGCTGACCCGCTATGTTGGTGACCCTTCTGCCTGATCTTTTCGCCTGCGTGAGCATCGCAGGCGCTTCAACCAATTCTTCAATTCTATTAATCACGTCCAGTAACGATCTAACCACGATCTTGATGTAGATCCCACTCCTGCATCTTTCCTGAGAAACGATTTGACTTAGTTTTTGTATGGGAATAATTTCTCCCTGTCAACATTGGATACAATATCATATATCATTGATTGGATAATTATAAATATGGAACCCATTACCCTTACCTTATGTTTATTGGTGTTCGCCC (double strand) [Probe 4 unlabeled competitor]", "values": [{"measurement": "binding", "setting": "[4]", "result": "binds"}, {"measurement": "binding", "setting": "[5]", "result": "binds"}]}
{"sequence": "CGTATGCTGACCCGCTATGTTGGTGACCCTTCTGCCTGATCTTTTCGCCTGCGTGAGCATCGCAGGCGCTTCAACCAATTCTTCAATTCTATTAATCACGTCCAGTAACGATCTAACCACGATCTTGATGTAGATCCCACTCCTGCATCTTTCCTGAGAAACGATTTGACTTAGTTTTTGTATGGGAATAATTTCTCCCTGTCAACATTGGATACAATATCATATATCATTGATTGGATAATTATAAATATGGAACCCATTACCCTTACCTTATGTTTATTGGTGTTCGCCC (double strand) [Probe 4]", "values": [{"measurement": "binding", "setting": "[2]", "result": "binds"}, {"measurement": "binding", "setting": "[6]", "result": "binds"}, {"measurement": "binding", "setting": "[3]", "result": "binds"}]}
{"sequence": "GCCTTCTTCGGTGACCTTATGGCCCATCGACAGGCCGTTCCACATATTACAGAGCAACATTTTCATTTTTTCGTTGCCAGCAACATTCCATATTTCCATATGAAATGCCTGATTCAGGTCGGAGTATTCCGCCGAGTTATTTTCCGCGAGAGCCTTTTCAGCGGCATAATGCACCTGGGCTATCCGCGAGATATCGGAGCCAGGACGAGAAGCTTTAGCCACCGCCTCACTTTCTAACAGCGCGCGAATTTCATAGTGTTCACGGATGG (double strand) [Probe 1]", "values": [{"measurement": "binding", "setting": "[1]", "result": "no binding"}, {"measurement": "binding", "setting": "[2]", "result": "binds"}, {"measurement": "binding", "setting": "[3]", "result": "binds"}]}
